Source: paper PMC10681739, “High-throughput data and modeling reveal insights into the mechanisms of cooperative DNA-binding by transcription factor proteins”

B1: Table S3 B row 1676 (dsDNA)
DNA 1: GTAAAATGCGGTCGGGTAGAAACCTACTTTCGGTCC
DNA 2: GGACCGAAAGTAGGTTTCTACCCGACCGCATTTTAC
B2: Table S3 B row 3703 (dsDNA)
DNA 1: GGAACACTGCGGTCGGGGCGAGGGAGCTGCCGGGGA
DNA 2: TCCCCGGCAGCTCCCTCGCCCCGACCGCAGTGTTCC
B3: Table S3 B row 1984 (dsDNA)
DNA 1: TAAAACCAAACCACAGATGACACATTGCCTTTCCAC
DNA 2: GTGGAAAGGCAATGTGTCATCTGTGGTTTGGTTTTA
B4: Table S3 B row 1841 (dsDNA)
DNA 1: CTGCCCATCGCGGTTAACTTTTGCGCCTCCTTAAAG
DNA 2: CTTTAAGGAGGCGCAAAAGTTAACCGCGATGGGCAG
B5: Table S3 B row 1484 (dsDNA)
DNA 1: GTGAAGACCGCAAGTTGGGGCAGATGGCTCCCGACT
DNA 2: AGTCGGGAGCCATCTGCCCCAACTTGCGGTCTTCAC
B6: Table S3 B row 878 (dsDNA)
DNA 1: CCCTTTGTGGTCACAAAAACATGTCCTAGTTGAGAT
DNA 2: ATCTCAACTAGGACATGTTTTTGTGACCACAAAGGG
B7: Table S3 B row 2861 (dsDNA)
DNA 1: ACGATCCAACCGCATTCACCCCGTAAGCCGCTTCCA
DNA 2: TGGAAGCGGCTTACGGGGTGAATGCGGTTGGATCGT
B8: Table S3 B row 1118 (dsDNA)
DNA 1: CTCCCACCATCCACCGCAGCCACTTTCGCCCGTCCT
DNA 2: AGGACGGGCGAAAGTGGCTGCGGTGGATGGTGGGAG
B9: Table S3 B row 1934 (dsDNA)
DNA 1: TCCTCCCCCAACCGCACCCTCAGCTTCATGTTTCAG
DNA 2: CTGAAACATGAAGCTGAGGGTGCGGTTGGGGGAGGA
B10: Table S3 B row 1201 (dsDNA)
DNA 1: GTGGGCTGTGGTTAGGAGACATGAAGGAGAATGCCA
DNA 2: TGGCATTCTCCTTCATGTCTCCTAACCACAGCCCAC
B11: Table S3 B row 2668 (dsDNA)
DNA 1: TACAGTCTCTGTGGTTTACTGAGAGGAGGTGGTTCT
DNA 2: AGAACCACCTCCTCTCAGTAAACCACAGAGACTGTA
B12: Table S3 B row 1232 (dsDNA)
DNA 1: CTCCTCTGTGGTCAGCCATCAATTCATCCCAGCCCG
DNA 2: CGGGCTGGGATGAATTGATGGCTGACCACAGAGGAG
B13: Table S3 B row 3999 (dsDNA)
DNA 1: ATGGAAATGTGGTTAAGAACTCCCTCTTTTACTAGA
DNA 2: TCTAGTAAAAGAGGGAGTTCTTAACCACATTTCCAT
B14: Table S3 B row 244 (dsDNA)
DNA 1: GGTCTTTTCTGTGGTTCTGTCACCTCCTTTGTAAGT
DNA 2: ACTTACAAAGGAGGTGACAGAACCACAGAAAAGACC
B15: Table S3 B row 1266 (dsDNA)
DNA 1: AGAAAACCACATTCAATTCTCTTTACACAGGGTGTT
DNA 2: AACACCCTGTGTAAAGAGAATTGAATGTGGTTTTCT
B16: Table S3 B row 1822 (dsDNA)
DNA 1: TCCTATTTTTACCGCAGTTGCACAGGCAATGAGGCG
DNA 2: CGCCTCATTGCCTGTGCAACTGCGGTAAAAATAGGA
B17: Table S3 B row 4026 (dsDNA)
DNA 1: CCTCCTGTGGTTAGTTCCTGCCCGATCAGGCAGGAG
DNA 2: CTCCTGCCTGATCGGGCAGGAACTAACCACAGGAGG
B18: Table S3 B row 2615 (dsDNA)
DNA 1: ACCCCCCAACCACAAGGCCCGTTTGCTGCCTCCCCA
DNA 2: TGGGGAGGCAGCAAACGGGCCTTGTGGTTGGGGGGT
B19: Table S3 B row 1521 (dsDNA)
DNA 1: CTCCGCCTTTCACCTCCTAGTAACCGCCCTCCCTTG
DNA 2: CAAGGGAGGGCGGTTACTAGGAGGTGAAAGGCGGAG
B20: Table S3 B row 2319 (dsDNA)
DNA 1: CCCCGGCAGAAACCGCACCCCACTCCCCATAGCCAC
DNA 2: GTGGCTATGGGGAGTGGGGTGCGGTTTCTGCCGGGG
B21: Table S3 B row 708 (dsDNA)
DNA 1: CTCCTGCGGTTGCCAGGCAACCGGCCCCGGGAGTTG
DNA 2: CAACTCCCGGGGCCGGTTGCCTGGCAACCGCAGGAG
B22: Table S3 B row 2775 (dsDNA)
DNA 1: CCTGTTTCGTGCCATCTGCCCTTCCTTTGTGGTCAA
DNA 2: TTGACCACAAAGGAAGGGCAGATGGCACGAAACAGG
B23: Table S3 B row 2767 (dsDNA)
DNA 1: CTTGCGGTCCCATCTTGCTTTTTTCTTGCGCTTTCC
DNA 2: GGAAAGCGCAAGAAAAAAGCAAGATGGGACCGCAAG
B24: Table S3 B row 2632 (dsDNA)
DNA 1: TCTGTTTTGTGGGTTCCCTGCCCCCCTTCGGCCTTT
DNA 2: AAAGGCCGAAGGGGGGCAGGGAACCCACAAAACAGA
B25: Table S3 B row 2863 (dsDNA)
DNA 1: CCGCCCTGTGGTTTTGGAGCCCTTGCTCCCGGCGCA
DNA 2: TGCGCCGGGAGCAAGGGCTCCAAAACCACAGGGCGG
B26: Table S3 B row 905 (dsDNA)
DNA 1: CCTCTGCGGTCTCTGCAGCCGTTTGCATTTGCTGAA
DNA 2: TTCAGCAAATGCAAACGGCTGCAGAGACCGCAGAGG
B27: Table S3 B row 3962 (dsDNA)
DNA 1: GCCCCTCTGCGGTCGCAGCCCCGCCGGGAGTGTGGC
DNA 2: GCCACACTCCCGGCGGGGCTGCGACCGCAGAGGGGC
B28: Table S3 B row 75 (dsDNA)
DNA 1: GCGTCCTTTGCGGTCTTTTGTCCACGTTCGGGTCAA
DNA 2: TTGACCCGAACGTGGACAAAAGACCGCAAAGGACGC
B29: Table S3 B row 1215 (dsDNA)
DNA 1: ACAGAGAAACCACAGCCCTGAGCCTCTTCATGACAT
DNA 2: ATGTCATGAAGAGGCTCAGGGCTGTGGTTTCTCTGT
B30: Table S3 B row 2682 (dsDNA)
DNA 1: TGGAAACCACAAGTTATTCCCTGCAAGCCGTAAGCA
DNA 2: TGCTTACGGCTTGCAGGGAATAACTTGTGGTTTCCA
B31: Table S3 B row 1939 (dsDNA)
DNA 1: TTGGTTCTGTGGTTTCAGGTGTGAGTTCCAGTGTGC
DNA 2: GCACACTGGAACTCACACCTGAAACCACAGAACCAA
B32: Table S3 B row 991 (dsDNA)
DNA 1: TCCCTTACCTTCATGCTGCCACCAAACCACCAAACC
DNA 2: GGTTTGGTGGTTTGGTGGCAGCATGAAGGTAAGGGA

Each binder was assayed against RUNX1 (Homo sapiens, UniProt Q01196) (assay: gcPBM; 2 nM RUNX1). Settings: tags: N-terminal GST (pDEST15), kept (PMC6008103); label: surface-attached array probe.
Chain of RUNX1 (Q01196 whole entry): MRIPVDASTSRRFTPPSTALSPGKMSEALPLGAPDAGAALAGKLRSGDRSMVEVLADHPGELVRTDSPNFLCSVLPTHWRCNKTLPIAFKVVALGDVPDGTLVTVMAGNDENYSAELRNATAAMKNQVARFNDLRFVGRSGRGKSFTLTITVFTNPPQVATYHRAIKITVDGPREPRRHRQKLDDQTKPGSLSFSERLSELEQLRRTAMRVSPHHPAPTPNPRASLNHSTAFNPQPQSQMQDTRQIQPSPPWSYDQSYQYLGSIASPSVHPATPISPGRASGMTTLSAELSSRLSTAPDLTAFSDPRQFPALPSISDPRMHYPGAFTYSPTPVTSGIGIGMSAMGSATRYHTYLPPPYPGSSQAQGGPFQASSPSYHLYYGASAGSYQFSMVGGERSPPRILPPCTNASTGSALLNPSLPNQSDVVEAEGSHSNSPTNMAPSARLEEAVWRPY
B1 was tested, and the binding signal was 2480 PBM fluorescence, median of replicate spots.
B2 was tested, and the binding signal was 4100 PBM fluorescence, median of replicate spots.
In the case of B3, the binding signal is reported as 2350 PBM fluorescence, median of replicate spots.
For B4, the binding signal was 3570 PBM fluorescence, median of replicate spots.
For B5, the binding signal was 3440 PBM fluorescence, median of replicate spots.
In the case of B6, the binding signal is reported as 3830 PBM fluorescence, median of replicate spots.
With B7 the binding signal was 4500 PBM fluorescence, median of replicate spots.
For B8, the binding signal was 3290 PBM fluorescence, median of replicate spots.
With B9 the binding signal was 3950 PBM fluorescence, median of replicate spots.
B10 was tested, and the binding signal was 4150 PBM fluorescence, median of replicate spots.
With B11 the binding signal was 2160 PBM fluorescence, median of replicate spots.
With B12 the binding signal was 4200 PBM fluorescence, median of replicate spots.
In the case of B13, the binding signal is reported as 2760 PBM fluorescence, median of replicate spots.
For B14, the binding signal was 2300 PBM fluorescence, median of replicate spots.
For B15, the binding signal was 3040 PBM fluorescence, median of replicate spots.
With B16 the binding signal was 3180 PBM fluorescence, median of replicate spots.
B17 was tested, and the binding signal was 4260 PBM fluorescence, median of replicate spots.
B18 was tested, and the binding signal was 2690 PBM fluorescence, median of replicate spots.
With B19 the binding signal was 2240 PBM fluorescence, median of replicate spots.
In the case of B20, the binding signal is reported as 4670 PBM fluorescence, median of replicate spots.
For B21, the binding signal was 3720 PBM fluorescence, median of replicate spots.
B22 was tested, and the binding signal was 2610 PBM fluorescence, median of replicate spots.
B23 was tested, and the binding signal was 2370 PBM fluorescence, median of replicate spots.
With B24 the binding signal was 2250 PBM fluorescence, median of replicate spots.
B25 was tested, and the binding signal was 4640 PBM fluorescence, median of replicate spots.
With B26 the binding signal was 4320 PBM fluorescence, median of replicate spots.
For B27, the binding signal was 4660 PBM fluorescence, median of replicate spots.
B28 was tested, and the binding signal was 4170 PBM fluorescence, median of replicate spots.
B29 was tested, and the binding signal was 4430 PBM fluorescence, median of replicate spots.
B30 was tested, and the binding signal was 4300 PBM fluorescence, median of replicate spots.
B31 was tested, and the binding signal was 2910 PBM fluorescence, median of replicate spots.
In the case of B32, the binding signal is reported as 2540 PBM fluorescence, median of replicate spots.
